Data on ten molecules can be found in US20130251714A1 (Sanofi, published 2013).

The target in experiment [1] is T1, N-terminal EC region of human CXCR5 (amino acids 1-59), synthetic peptide with a terminal biotin tag (human, UniProt P32302 1-59, terminal biotin tag).
T1 construct: range 1-59; also called biotinylated human peptide
T1 sequence (peptide, looked up): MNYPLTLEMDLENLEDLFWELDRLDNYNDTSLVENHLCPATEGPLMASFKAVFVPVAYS
Nature of the experiment: Biacore, forward format: biotin-tagged CXCR5 N-terminal peptide (aa 1-59) on the chip, antibody as analyte. As for the experimental part:
The N-terminal EC region of CXCR5 (amino acids 1-59) from human and mouse were synthesized with a terminal biotin tag, and used in a forward format Biacore assay where the peptides were immobilized on a Biacore chip and then the kinetics of antibody interaction with the peptides on the chip were determined. The synthetic peptides were immobilized on a Biacore chip for approximately 20 response units (RUs'). Then the mAb's were exposed to the chip for kinetic measurements, following the manufacturer's recommendations (GE Healthcare, Piscataway, N.J.).
(In general: In SPR one partner is held on a chip, and binding of the other changes the refractive index at the surface.)

For experiment [2], the target named is T2, cynomolgus CXCR5 (on cynomolgus B cells) (cynomolgus monkey, UniProt G8F5K4 1-372).
T2 construct: also called cyno CXCR5
T2 sequence: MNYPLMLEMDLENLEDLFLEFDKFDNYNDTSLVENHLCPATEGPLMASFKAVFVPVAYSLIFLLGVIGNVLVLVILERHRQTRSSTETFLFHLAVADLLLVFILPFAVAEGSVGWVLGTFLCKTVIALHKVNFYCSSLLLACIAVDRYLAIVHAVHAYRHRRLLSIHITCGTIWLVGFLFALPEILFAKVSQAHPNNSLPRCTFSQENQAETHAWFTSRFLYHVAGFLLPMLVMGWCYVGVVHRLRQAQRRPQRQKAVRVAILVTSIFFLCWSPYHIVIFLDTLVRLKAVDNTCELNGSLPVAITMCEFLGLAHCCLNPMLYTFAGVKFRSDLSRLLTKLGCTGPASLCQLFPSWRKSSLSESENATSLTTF
Kind of experiment: FACS on cynomolgus PBMCs (CD20+ B cells). Here is the method:
Cynomolgus (cyno) monkey whole blood was obtained from Bioreclamation, Inc. (Hicksville, N.Y.). The blood was shipped in BD Cell Preparation Tubes (CPT) post-centrifugation. The cyno PBMCs contained in the plasma layer were removed from the CPT tube into a 50 ml tube leaving the gradient gel layer undisturbed. The tube was washed with 5 ml PBS to completely extract all the cells and the wash was added to a fresh 50 ml tube. The cyno PBMCs were centrifuged at 1200 RPM for 10 minutes at 4° C. The pellet was resuspended in 1 ml BD FACS Stain buffer (BD). One million cells were used per assay. One μg of mouse anti-human CXCR5 monoclonal antibody (purified) was added to 50 μl PBMC and allowed to bind for 20 minutes at 4° C. Cells were washed 2 times with BD Stain buffer. Fifty μl of second antibody, goat anti-mouse IgG-PE F_{(ab′)} (Beckman Coulter) diluted 1/100, was added to the cells and allowed to bind for 20 minutes at 4° C. Cells were washed three times with BD Stain buffer. A cocktail containing mouse anti-human CD20-FITC (BD) and CD4-APC (BD) at 1/20 dilution each was added to cells for a 20 minute incubation at 4° C. for assessment of B/T cell specificity. Cells were washed 3 times with BD Stain buffer, and resuspended in 250 μl BD Stain buffer and subjected to FACS analysis on a FACStarPlus. Commercial mouse anti-human CXCR5 mAb (R&D; MAB 190) was used as a positive control.

For experiment [3], the target named is T3, un-tagged human CXCR5 N-terminal peptide (amino acids 1-59) (human, UniProt P32302 1-59).
T3 construct: range 1-59
T3 sequence (peptide, looked up): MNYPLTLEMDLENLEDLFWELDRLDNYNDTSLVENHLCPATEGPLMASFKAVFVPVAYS
Nature of the experiment: Biacore, reverse format: mAb captured by pre-immobilized mouse anti-human IgG Fc antibody, un-tagged peptide as analyte. Here is the method:
Humanized SAR113244, a form of the 16D7 humanized variant, 16D7-HC1-LC3 that carries the S241P and L248E substitutions (substitutions introduced practicing known methods and reagents, using Kabat numbering), was captured on a Biacore chip by pre-immobilized mouse anti-human IgG Fc antibody, and then used in a reverse assay format Biacore assay where the kinetics of the un-tagged human CXCR5 N-terminal peptide (amino acids 1-59) interaction with the mAb's on the chip were determined.

B1: Mouse anti-hCXCR5 mAb clone 16D7 (antibody, V domains shown)
VH: QVQLKESGPGLVAPSQSLSITCTVSGFSLIDYGVNWIRQPPGKGLEWLGVIWGDGTTYYNSALKSRLSIRKDNSQSQVFLKMNSLQTDDTAMYYCARIVYWGQGTLVTVSA
VL: DIVMTQAAPSVAVTPRESVSISCRSSKSLLHSSGKTYLYWFLQRPGQSPQLLIYRMSNLASGVPDRFSGSGSGTAFTLRISRVEAEDVGVYYCMQHLEYPYTFGGGTKLEIK
notes: Mouse monoclonal antibody from a hybridoma; kappa light chain; also called murine 16D7; parent 16D7 antibody
Take B1: the Kd (commonly a measure of binding affinity in units of concentration) in experiment [1] came out at 2.16 pM. In experiment [2], the binding result is recorded as “no binding (tested: One µg of antibody added to 50 µl PBMC)”.

B2: 16D7-HC1-LC1 (antibody, V domains shown)
VH: QVQLKESGPGLVAPSESLSITCTVSGFSLIDYGVNWIRQPPGKGLEWLGVIWGDGTTYYNPSLKSRLSISKDNSKSQVFLKVTSLTTDDTAMYYCARIVYWGQGTLVTVSA
VL: DIVMTQAAPSVAVTPGASVSISCRSSKSLLHSSGKTYLYWFLQRPGQSPQLLIYRMSNLASGVPDRFSGSGSGTAFTLRISRVEAEDVGVYYCMQHLEYPYTFGGGTKLEIKR
notes: Humanized 16D7 on an IgG4 backbone / kappa; also called Version1
Molecule B2 gave a Kd in experiment [1] of 3.11 pM. Moreover, the binding result in experiment [2] is on record as “no binding”.

B3: 16D7-HC1-LC2 (antibody, V domains shown)
VH: QVQLKESGPGLVAPSESLSITCTVSGFSLIDYGVNWIRQPPGKGLEWLGVIWGDGTTYYNPSLKSRLSISKDNSKSQVFLKVTSLTTDDTAMYYCARIVYWGQGTLVTVSA
VL: DIVMTQAAPSVAVTPGASVSISCRSSKSLLHSSGKTYLYWFLQRPGQSPQLLIYRLSNLASGVPDRFSGSGSGTAFTLRISRVEAEDVGVYYCMQHLEYPYTFGGGTKLEIKR
notes: Humanized 16D7 on an IgG4 backbone / kappa; also called Version3
B3: the Kd in experiment [1] stood at 1.41 pM. Further, the binding result in experiment [2] is “no binding”.

B4: 16D7-HC2-LC1 (antibody, V domains shown)
VH: EVQLKESGPGLVAPGGSLSITCTVSGFSLIDYGVNWIRQPPGKGLEWLGVIWGDGTTYYNAPLKGRLSISKDNSKSQVFLQMNSLKTDDTAMYYCARIVYWGQGTLVTVSS
VL: DIVMTQAAPSVAVTPGASVSISCRSSKSLLHSSGKTYLYWFLQRPGQSPQLLIYRMSNLASGVPDRFSGSGSGTAFTLRISRVEAEDVGVYYCMQHLEYPYTFGGGTKLEIKR
notes: Humanized 16D7 on an IgG4 backbone / kappa; also called Version 2
The molecule B4 had a Kd in experiment [1] of 2.4 pM. Also, the binding result in experiment [2] is listed as “no binding”.

B5: 16D7-HC1-LC3 (antibody)
heavy: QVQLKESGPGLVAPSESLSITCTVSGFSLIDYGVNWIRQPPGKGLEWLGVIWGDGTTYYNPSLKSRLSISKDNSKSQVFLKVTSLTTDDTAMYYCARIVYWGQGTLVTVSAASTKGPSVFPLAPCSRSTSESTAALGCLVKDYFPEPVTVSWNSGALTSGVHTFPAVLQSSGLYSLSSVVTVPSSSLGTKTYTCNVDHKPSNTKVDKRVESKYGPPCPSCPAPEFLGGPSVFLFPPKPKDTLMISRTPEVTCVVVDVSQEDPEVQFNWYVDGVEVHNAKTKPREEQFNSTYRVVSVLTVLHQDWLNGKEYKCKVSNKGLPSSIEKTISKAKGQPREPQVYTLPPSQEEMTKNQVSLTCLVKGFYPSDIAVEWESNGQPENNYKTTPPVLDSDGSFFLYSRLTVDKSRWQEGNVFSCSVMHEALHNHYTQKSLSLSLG
light: DIVMTQAAPSVAVTPGASVSISCRSSKSLLHSSGKTYLYWFLQRPGQSPQLLIYRLSSLASGVPDRFSGSGSGTAFTLRISRVEAEDVGVYYCMQHLEYPYTFGGGTKLEIKRTVAAPSVFIFPPSDEQLKSGTASVVCLLNNFYPREAKVQWKVDNALQSGNSQESVTEQDSKDSTYSLSSTLTLSKADYEKHKVYACEVTHQGLSSPVTKSFNRGEC
notes: Humanized 16D7 on an IgG4 backbone / kappa; also called Version 4
Turning to B5, the Kd in experiment [1] is 1.21 pM. Further, the binding result in experiment [2] was “no binding”.

B6: 16D7-HC1-LC6 (antibody, V domains shown)
VH: QVQLKESGPGLVAPSESLSITCTVSGFSLIDYGVNWIRQPPGKGLEWLGVIWGDGTTYYNPSLKSRLSISKDNSKSQVFLKVTSLTTDDTAMYYCARIVYWGQGTLVTVSA
VL: DIVMTQSALSVAVTPGESVSISCRSSKSLLHSSGKTYLYWFLQRPGQSPQLLIYRLSSLASGVPDRFSGSGSGTAFTLKISRVEAEDVGVYYCMQHLEYPYTFGGGTKLEIKR
notes: Leader (residues 1-19) left out by comparison with the printed variable domains
B6 showed a Kd in experiment [1] of 91.7 pM.

B7: 16D7-HC3-LC4 (antibody, V domains shown)
VH: QVQLQESGPGLVAPSESLSITCTVSGFSLIDYGVNWIRQPPGKGLEWLGVIWGDGTTYYNPSLKSRLSISKDNSKSQVFLKMNSLTAADTAMYYCARIVYWGQGTLVTVSS
VL: DIVMTQSALSVAVTPGESVSISCRSSKSLLHSSGKTYLYWFLQRPGQSPQLLIYRMSNLASGVPDRFSGSGSGTAFTLKISRVEAEDVGVYYCMQHLEYPYTFGGGTKLEIKR
notes: Resurfaced 16D7; VL fused to IGKC, VH fused to IGHG4 lacking the C-terminal Lys; also called Version5
In the case of B7, the affinity in experiment [1], expressed as Kd, was 4.92 pM.

B8: mouse/human IgG4 chimeric 16D7 (antibody, V domains shown)
VH: QVQLKESGPGLVAPSQSLSITCTVSGFSLIDYGVNWIRQPPGKGLEWLGVIWGDGTTYYNSALKSRLSIRKDNSQSQVFLKMNSLQTDDTAMYYCARIVYWGQGTLVTVSA
VL: DIVMTQAAPSVAVTPRESVSISCRSSKSLLHSSGKTYLYWFLQRPGQSPQLLIYRMSNLASGVPDRFSGSGSGTAFTLRISRVEAEDVGVYYCMQHLEYPYTFGGGTKLEIKR
notes: 16D7 VH and VL on human IgG4 (IGHG4 lacking the C-terminal Lys) and kappa (IGKC); also called the hIgG4 chimera
With B8, binding in experiment [1] was characterised by a dissociation constant (Kd) of 1.41 pM.

B9: 16D7-HC3-LC5 (antibody, V domains shown)
VH: QVQLQESGPGLVAPSESLSITCTVSGFSLIDYGVNWIRQPPGKGLEWLGVIWGDGTTYYNPSLKSRLSISKDNSKSQVFLKMNSLTAADTAMYYCARIVYWGQGTLVTVSS
VL: DIVMTQSALSVAVTPGESVSISCRSSKSLLHSSGKTYLYWFLQRPGQSPQLLIYRLSNLASGVPDRFSGSGSGTAFTLKISRVEAEDVGVYYCMQHLEYPYTFGGGTKLEIKR
notes: Resurfaced 16D7; VL fused to IGKC, VH fused to IGHG4 lacking the C-terminal Lys; also called Version6
B9 gave a Kd in experiment [1] of 184 pM.

B10: Humanized SAR113244 (16D7-HC1-LC3 carrying the S241P and L248E substitutions) (antibody)
heavy: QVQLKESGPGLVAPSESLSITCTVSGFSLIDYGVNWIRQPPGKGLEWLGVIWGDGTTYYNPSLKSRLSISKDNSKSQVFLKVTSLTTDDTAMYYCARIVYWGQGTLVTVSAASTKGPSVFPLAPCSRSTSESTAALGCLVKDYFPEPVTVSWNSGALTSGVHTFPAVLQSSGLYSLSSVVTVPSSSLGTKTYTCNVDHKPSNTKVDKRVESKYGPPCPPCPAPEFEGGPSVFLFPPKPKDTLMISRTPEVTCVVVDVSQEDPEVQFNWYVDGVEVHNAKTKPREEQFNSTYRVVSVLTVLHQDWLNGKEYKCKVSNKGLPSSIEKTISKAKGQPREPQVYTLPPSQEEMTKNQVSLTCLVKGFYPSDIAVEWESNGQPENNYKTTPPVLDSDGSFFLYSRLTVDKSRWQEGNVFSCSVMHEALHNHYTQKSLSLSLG
light: DIVMTQAAPSVAVTPGASVSISCRSSKSLLHSSGKTYLYWFLQRPGQSPQLLIYRLSSLASGVPDRFSGSGSGTAFTLRISRVEAEDVGVYYCMQHLEYPYTFGGGTKLEIKRTVAAPSVFIFPPSDEQLKSGTASVVCLLNNFYPREAKVQWKVDNALQSGNSQESVTEQDSKDSTYSLSSTLTLSKADYEKHKVYACEVTHQGLSSPVTKSFNRGEC
notes: Leader (residues 1-19) left out as for 16D7-HC1-LC3
The molecule B10 registered a Kd in experiment [3] of 11.3 pM.
